T1: OsCYCOS2 aa 50-233 (Oryza sativa, UniProt A2YH60 50-233)
T1 construct: bait, Gal4 DBD fusion; also called PN20257; O. sativa Cyclin OsCYCOS2
T1 chain: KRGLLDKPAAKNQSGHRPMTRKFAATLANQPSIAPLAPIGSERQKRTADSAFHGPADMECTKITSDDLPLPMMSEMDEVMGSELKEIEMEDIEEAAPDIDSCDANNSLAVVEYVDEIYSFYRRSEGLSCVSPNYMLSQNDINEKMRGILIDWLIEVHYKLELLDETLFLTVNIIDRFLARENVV

T2: OsCYCOS2 aa 170-310 (Oryza sativa, UniProt A2YH60 170-310)
T2 construct: bait, Gal4 DBD fusion; also called PN20257
T2 sequence: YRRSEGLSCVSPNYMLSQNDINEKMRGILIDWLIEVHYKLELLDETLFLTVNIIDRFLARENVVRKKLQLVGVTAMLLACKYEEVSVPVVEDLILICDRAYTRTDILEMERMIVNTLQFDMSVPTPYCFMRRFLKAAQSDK

T3: OsMADS6 aa 50-200 (Oryza sativa, UniProt Q6EU39 50-200)
T3 construct: bait, Gal4 DBD fusion; also called PN20233
T3 sequence: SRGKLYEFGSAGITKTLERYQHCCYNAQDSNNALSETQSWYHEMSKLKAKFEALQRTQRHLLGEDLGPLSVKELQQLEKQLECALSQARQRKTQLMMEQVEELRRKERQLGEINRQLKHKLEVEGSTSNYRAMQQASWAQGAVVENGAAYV

T4: OsHOS59 aa 1-100 (Oryza sativa, UniProt Q94LW4 113-212)
T4 construct: bait, Gal4 DBD fusion; also called PN20559; O. sativa Homeobox Protein HOS59, Fragment
T4 sequence: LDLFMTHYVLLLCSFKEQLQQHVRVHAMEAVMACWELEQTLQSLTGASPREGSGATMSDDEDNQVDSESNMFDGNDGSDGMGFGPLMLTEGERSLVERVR

B1: PN23136 aa 66-191 (other)
chain: LRERIHKTRQHITQLVKDTSEKLKQASEADHRVEVSASKKIADAKLAKDFQAVLKEFQKAQRLAVEREAAYAPFISQAGLPQSYNSSEVNNGADKLAEQRTALLESRRQELVFLDNEIVFNEAVIE
notes: prey, AD fusion; also called Hypothetical Protein BAA85200 Similar to Syntaxin Related Protein AtVam3p
B2: OsPN29958 aa 3-304 (other)
chain: QNEVSALEKQTLSLANDCLQSNKLRMEENALSTQVLKTNMRSSGDQNTVRTVKDMELQKLHGTIKALQKVVTDTAVLLDQERLDFNANLQEARKQIEVLKLKEILDDDLIEMNYEQMLKDIQLDLIQISSGNKTGSLGQANKTVAQANEKMLDSHGIVGASSSHVRNDLRPPQSESFERDNYKRPPSELMVVKELSIDKQELPRSITTEPHQEWKNKVIERLASDAQRLNALQSSIQELKTNTEASEGLELESVRYQIREAEGFITQLIDSNGKLSKKAEEFTSEDGLDGDNIDLRSRHQRK
notes: prey, AD fusion; also called Novel Protein PN29958, Fragment, centromere homologue
B3: OsPN29966 aa 8-216 (other)
chain: GTISAVEQESARQIASKDAEIAFLNEKLHQFRNSGLSLSEGRDKLYEEIYNLRQQLVTLSKSLLNSEWGLSVSHYNNFEGAEDESKHRGNEKSSKDGITKENGSKGSNEDIFIDPTVLKHMDRDELVAHFNKMMNQMKRQHDSTLQEKTEEIFRLKRENLKKEGPNPWHLRNNKEFELMRKKIWEVITKLDEVLVENKRTIRIKSDVFP
notes: prey, AD fusion; also called Novel Protein PN29966, Fragment, myosin heavy chain
B4: OsPN29961 aa 10-215 (other)
chain: QKDGAPDEGSVGVPGRKTKETVTAADAIIDALDTAEEEVKRLDQHQEGQNNGNGTTFQPNVIMQGQSPSDYVLNVVSNVRPNDLEQALLSLPFSDALKIMSYLKEWSMVPLKVELVCRVCLVLLQTHHSQLTTTPSARSILTELKGILYSRVKECKDAIGFNLAAMDHIKELLAMRSDAPFRDARAKLMEIRQEQSRRSDRSDGAE
notes: prey, AD fusion; also called Novel Protein PN29961, Fragment, Similar to A. thaliana Unknown Protein BAB02349
B5: OsPN29882 aa 107-273 (other)
chain: ALMVERLEGSRQKLLMEIDSQSSEIEKLFEENSALSTSYQEAVAVTMQWENQVKDCLKQNEELRSHLEKLRLEQATLLKTSNTTIQPDGQNETSISFPPEFVTENLSLKDQLIKEQSRSEGLSAEIMKLSAELRKAVQAQNNLARLYRPVLRGIESNLMKMKQETYA
notes: prey, AD fusion; also called Novel Protein PN29882, Fragment, myosin heavy chain
B6: OsPN30854 aa 100-169 (other)
chain: RIDVVNRQLKPLGKTCVKKEKEYKEILEAYNEKNKEKALLVNRLIELVSESERMRMKKLEELNKTVDSLY
notes: prey, AD fusion; also called Novel Protein PN30854, unknown
B7: OsPN29942 aa 1-159 (other)
chain: EHESDEEKNEVDTSNEIKEIVIDDMEPKVFQAGFLFMYRDNLVGDDELSASSSDCSIFDTLAGKLLAAADRYELPRLRLLCESYLCKHISVNSVATTLALADRHHAMELKSVCLKFAAENLSAVIRTDGFDYLKDNCPALQSEILRTVAGCEEECSSGG
notes: prey, AD fusion
B8: OsPN23484 aa 90-245 (other)
chain: RLQREKAAAQMEARQFRRYAEGREDREREVQEELASLSDLAASYHSRLQSHGIDPDSFSDDGEEEQHDEEDGEEVEQIDTAALQTDGSSGGDSIGGMQVKAMVDDDEEEQFTPVEKEFEYTVDVRCASSTTKVSGAVVVGEFMGEGNAAAGGLYAR
notes: prey, AD fusion
B9: PN20815 aa 1-134 (other)
chain: MDKELKERDEKYVELDTKFQRLHKRAKQRIQDIQKEKDDMEARFNEINQKAEQASSLQSAAQQELERARQQASEALRSMDAERQQLRTVNSKLRTNLDEARVALEARNNVLEKLRQSMFEKEQLLEQTQASLQS
notes: prey, AD fusion; also called Hypothetical Protein PN20815 Similar to A. thaliana Myosin Heavy Chain, Fragment
B10: PN26210 aa 364-613 (other)
chain: VGYNSIEAEDWELATNGEEMSKLEALLLDKNRKMEHELTQLKVKISEKSNLLEEAEKKIAELTAKAEEQQKLILKLEDDILKGYSSTDRRTSLLNDWDLQEIGSNEVAEGTDPRHAPQDQDQSSMLKVICNQRDRFRTRLRETEEELRRLKEKYEMLVVELEKTKADNVQLYGKIRYVQDYSHEKIVSRGPKKYAEDVESGSSDVETKYKKMYEDDINPFAAFSKKEKDQRYKELGLRDKITLSSGRFLL
notes: prey, AD fusion; also called Putative CCAAT Displacement Protein
B11: PN26210 aa 422-646 (other)
chain: IAELTAKAEEQQKLILKLEDDILKGYSSTDRRTSLLNDWDLQEIGSNEVAEGTDPRHAPQDQDQSSMLKVICNQRDRFRTRLRETEEELRRLKEKYEMLVVELEKTKADNVQLYGKIRYVQDYSHEKIVSRGPKKYAEDVESGSSDVETKYKKMYEDDINPFAAFSKKEKDQRYKELGLRDKITLSSGRFLLGNKYARTFIFFYTIGLHLLVFTLLYRMSALSYL
notes: prey, AD fusion; also called O. sativa Putative CCAAT Displacement Protein
B12: OsPN23484 aa 64-212 (other)
chain: RELQAELDAERASAETATSEAMLMIERLQREKAAAQMEARQFRRYAEGREDREREVQEELASLSDLAASYHSRLQSHGIDPDSFSDDGEEEQHDEEDGEEVEQIDTAALQTDGSSGGDSIGGMQVKAMVDDDEEEQFTPVEKEFEYTVD
notes: prey, AD fusion
B13: OsPN23484 aa 77-233 (other)
chain: AETATSEAMLMIERLQREKAAAQMEARQFRRYAEGREDREREVQEELASLSDLAASYHSRLQSHGIDPDSFSDDGEEEQHDEEDGEEVEQIDTAALQTDGSSGGDSIGGMQVKAMVDDDEEEQFTPVEKEFEYTVDVRCASSTTKVSGAVVVGEFMG
notes: prey, AD fusion
B14: OsMADS18 aa 64-249 (other)
chain: EGILERYQRYSFDERAVLEPNTEDQENWGDEYGILKSKLDALQKSQRQLLGEQLDTLTTKELQQLEHQLEYSLKHIRSKKNQLLFESISELQKKEKSLKNQNNVLQKLMETEKEKNNAIINTNREEQNGATPSTSSPTPVTAPDPIPTTNNSQSQPRGSGESEAQPSPAQAGNSKLPPWMLRTSHT
notes: prey, AD fusion; also called PN20912
B15: OsFDRMADS8 aa 91-233 (other)
chain: KDDTLGLAKKLEALDESRRKILGENLEGCSIEELRGLEMKLEKSLHNIRLKKTELLERQIAKLKEKERTLLKDNENLRGKHRNLEAAALVANHMTTTTAPAAWPRDVPMTSSTAGAADAMDVETDLYIGLPGTERSSNRSETG
notes: prey, AD fusion; also called PN20698
B16: OsBAA81880 aa 120-228 (other)
chain: IDELQQLEKNLEAGLHRVMLTKDQQFMEQISELQRKSSQLAEENMQLRNQVSQISPAEKQVVDTENFVTEGQSSESVMTALHSGSSQSQDNDDGSDVSLKLGLPCGAWK
notes: prey, AD fusion; also called PN20837
B17: Os008339 aa 108-226 (other)
chain: ELAETSLRLRQMRGEELHRLNVEQLQELEKSLESGLGSVLKTKSKKILDEIDGLERKRMQLIEENLRLKEQVSRMSRMEEMQPGPDSEIVYEEGQSSESVTNASYPRPPPDNDYSSDTS
notes: prey, AD fusion; also called PN20847
B18: OsMADS5 aa 61-171 (other)
chain: SCMYKTLERYRSCNYNLNSCEASAALETELSNYQEYLKLKTRVEFLQTTQRNLLGEDLVPLSLKELEQLENQIEISLMNIRSSKNQQLLDQVFELKRKEQQLQDANKDLKR
notes: prey, AD fusion; also called PN20770
B19: OsMADS7 aa 95-259 (other)
chain: RESEQLKASRNEYLKLKARVENLQRTQRNLLGPDLDSLGIKELESLEKQLDSSLKHVRTTRTKHLVDQLTELQRKEQMVSEANRCLRRKLEESNHVRGQQVWEQGCNLIGYERQPEVQQPLHGGNGFFHPLDAAGEPTLQIGYPAEHHEAMNSACMNTYMPPWLP
notes: prey, AD fusion; also called PN21116
B20: OsMADS15 aa 73-183 (other)
chain: YSYAEKALISAESESEGNWCHEYRKLKAKIETIQKCHKHLMGEDHESLNLKELQQLEQQLESSLKHIISRKSHLMLESISELQKKERSLQEENKALQKELVERQKNVRGQQ
notes: prey, AD fusion; also called PN20842
B21: OsPN23830 aa 4-207 (other)
chain: LEDFQASVEALPAMLQRNYSLMRELDKSLQGVQTGNEQRCQQEIEDIKHGLESGSITYDPAKLKFSDEAIEEQKHCVRIADEKVALASQTYDLVDAHIQQLDQFMRKLEELRQEKEAATTAAAAAAAAAASVATGTPVAATVTASAGTSTADNTPKGGRSSERGRGGRKKTAKVPTEQPAPAIDLELPVDPNEPTYCLCNQVSY
notes: prey, AD fusion; also called Novel Protein PN23830, Similar to A. thaliana Putative PHD-Finger Protein
B22: OsPN24092 aa 797-948 (other)
chain: SIKDQVQTYLEEINTLKSSKNEKEEMIERLQSEIRSLKFEYDNLKILMSTNDSEKHNLASQVLKLRRALESREDVKQNGVKSDEDNHHATSKRIKHDDGTTGSRNVLPSTNRHNANGDCNGHDRRDAAHDQSVKELEILKERNTALEEELKE
notes: prey, AD fusion; also called Novel Protein PN24092, Similar to O. sativa Putative Myosin
B23: OsPN23830 aa 1-169 (other)
chain: MGFLEDFQASVEALPAMLQRNYSLMRELDKSLQGVQTGNEQRCQQEIEDIKHGLESGSITYDPAKLKFSDEAIEEQKHCVRIADEKVALASQTYDLVDAHIQQLDQFMRKLEELRQEKEAATTAAAAAAAAAASVATGTPVAATVTASAGTSTADNTPKGGRSSERGRG
notes: prey, AD fusion

Target: T1, OsCYCOS2 aa 50-233
Experiment: Y2H; output trait library
Method in brief: (§1)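 A rice prey library, either the input trait or the output trait library, was screened with a bait clone encoding a defined amino-acid fragment of a rice protein. Screening used an automated, high-throughput yeast two-hybrid assay provided by Myriad Genetics Inc. (Salt Lake City, Utah). Retrieved prey clones had their encoding sequences compared by BLAST against databases so the interacting proteins could be identified.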

Binding result, binds:
B1
B2
B3
B4
B5

target: T2, OsCYCOS2 aa 170-310; experiment: Y2H; output trait library
Method in brief: as §1

Binding result, binds:
B6
B7
B8
B9
B10
B11
B12
B13

target: T3, OsMADS6 aa 50-200; experiment: Y2H; output trait library
Method in brief: as §1

Binding result, binds:
B14
B15
B16
B17
B18
B19
B20

target: T4, OsHOS59 aa 1-100; experiment: Y2H; output trait library
Method in brief: as §1

Binding result, binds:
B21
B22
B23

Reference: patent publication US20060253917A1 (published 2006)
